Assay results reported in a protein production outcome set (Wang et al. 2014).

Test: label from the status in PepcDB records

Row | Sequence | protein production
1 | MSLETRARNSTRPASGLIDWEQARQAALRLSQWEQAPVDNRAFRREQYARMVALSEPLIADYLGVRLPEPVSRIFVFDRREWLEANIVSFSQLFRPIEEMYEKNGGGRGALGVLMNDVSSKLLGVQIGGLLGYLAQRVLGQYDLSLLSAEATGGSLYFVEPNIARVQQQLGLSDEDFRLWITLHEMTHAFEFEAYPWVRTYFRELLEQNFALVSGQMLSSGNSLVDMLMRLLQGIGSGQHWIETVLTPEQRAVFDRIQALMSLIEGYGNHVMNAVGRRLLPSFNQIEQQIAQRQRQRTMLDQMVFRLTGLDLKLAQYQQGEAFVNAVVAARGIQFASRVWERPENLPSMDEIRNPGQWIVRMDREGHHHHHH | not failed
2 | MDVIKISPRGYCYGVVDAMVIAKNASLDKSLPRPIYILGMIVHNKHVTDAFEEEGILTLDGSNRLDILKQVDKGTVIFTAHGVSPEVRRIAEEKGLVAIDATCPDVTKTHNLILEMKEKGYHVIYIGKKGHPEPEGAVGVAPEIVHLVETEEDVKNLDIQSEKLIVTNQTTMSQWDVHDIMELVKEKYPHVEYHQEICLATQVRQEAVSEQAKKADLTIVVGDPKSNNSNRLAQVSEEIAGTKAYRIGDLSELKLEWLKGVNTVAVTAGASTPTPITKEVIRFLEQFDHE | failed
3 | RLEITPEAFLSDPTPAGVAARAAYELDPDIHVLPLADGTGEPLYLLHPSGGDVLCYMGLARELQGRPVYAVADPGLEDTPMPVDLDVVALTYGRVIMAHRAGLADTGKHGVREATAGYLIGGWSMGGTVAQRVAVQWRDQGIAVGALVLIDSNSPDRIRALTGMNDREVDAEFARRYLRSLQAFGAKAVDASAVTESDPASGVARALAGQGLALKDVERRISVFTRHLAGLAQLRVRPLVDVPTLLVIAEHQSPANSGVGMGVDDARDTEHLGWDDNLPTSTTEIMVPGHHYSVLSAPGLEIISEQIRELLA | failed
4 | MLTFFIGDLLPIIVIMLLGYFSGRRETFSEDQARAFNKLVLNYALPAALFVSITRANREMIFADTRLTLVSLVVIVGCFFFSWFGCYKFFKRTHAEAAVCALIAGSPTIGFLGFAVLDPIYGDSVSTGLVVAIISIIVNAITIPIGLYLLNPSSGADGKKNSNLSALISAAKEPVVWAPVLATILVLVGVKIPAAWDPTFNLIAKANSGVAVFAAGLTLAAHKFEFSAEIAYNTFLKLILMPLALLLVGMACHLNSEHLQMMVLAGALPPAFSGIIIASRFNVYTRTGTASLAVSVLGFVVTAPLWIYVSRLVS | failed
5 | MSSTILVLGATGTVGRHVVDGLLAKGEAVKAASRAGKPVAAAEGVAFDYARPETFGPALEGVDRAYVLLASGYVDSKGLLLPVIEAAATRKVKVVLQSVIGVDADDSIPYRQVEIALEKSDTPYVILRPNWFSDNFHTFWKPGIDHGQIALPAAEGKSSFIDARDIAASGVAVLTSSSFDGKAFNLTGPEALSYAEAAAILSEAIGKPVTYNAVSDEAFIEMLTGAGVPAGYASFLASIFYPVRQNWTAVMTGDVETLTGKAPRSLKTYAADYAAALKA | failed
6 | MAGIRLLPEEPETTPQQQARAAAAVTTTTTDSLASDDDRSIAADSWSIKSEYGSTLDDDQRHADAAEALSSANFRVSSDYSSDKEEPDADGGGQSMLGLQSYWDAAYSDELTNFREHGHAGEVWFGDDVMEIVTSWTKDLCVEISQRNMSVSENDVTTEVNDQADKYLSSWNVLDLGTGNGLLLHQLAKEGFSDLTGTDYSDGAVELAQHLSQRDGFPNIRFMVDDILDTKLEQQFKLVMDKGTLDAIGLHPDGPVKRVMYWDSVSKLVAPGGILVITSCNHTKDELVEEVENFNIRKSNLCRGDGNDANNVLSSGSEAASRIDQPPFEYLSHVRTYPTFMFSGSVGSRVATVAFLRK | failed
7 | MEFDKGQTLGNFIDRIRLNGYNTECVFNQSICQDIKNHYKQQCCAMCGVRGNSENTQIEVDHKDGRKDDSRVSDLSTQAFDDFQALCKACNDKKRQICKKCKETGYRFDARKIPGNHYSFYEGEAEYDGCVGCYQYDPIQYRKTCNDRIYNEGYQKGYSDGYQIGYHQKTT | failed
8 | MPVSNEIWQLLSRLAEDIRPIGVNISAGEPNRLWTEAKWRALLERFPGERFVVLSGPDDLDAKRRLEEQCPNAVASPPTRNLYEASCIVAKLRLLVTPDTSMVHVASATGTPVAGLYREAPQDISRFGPYAIPYEIVISPTGEVSGIKPESVADAVRRLMARAIGREALEHHHHHH | not failed
9 | MKGKILDYSIQTSTGIIRAENQQRYSFSGSAWKEQQAPMRGMHVDFEIDAQDQVIDIFIDASDLEPAIQPSPTAVISDTVSKETHADNLSTSSDPLSSASLSHTHSQYSSSTDDQHQNLLANESKYSMMDWVMKCLRNYINFTGRARRKEYWFFQLWYAILSFVMLVLGDAFHWGDNLFLIATLLVALPAIAVSAHRLHDINRSGWLVLLNLVTIVGVLIVTFFFMIKEGDQTTNSYGPASK | failed
10 | MNQEFFMLSQAMVEHLNEQINLEFFSSNLYLQMSAWCEDKGFDGAAEFLRAHAVEEMQHMQRLFTYVSETGALPILGAIAAPRHDFASLGEVFRETYQHEQKITQQINKLAHVAFTSQDYSTFNFLQWYVAEQHEEEKLFKGILDKLELVGEDGKALFFIDKDLAALAKKGSSSVMDAPAE | not failed
11 | MTLAPPLPHSNSPCSPCCMDPLLRHGFCLDMSGEIYPVIRLPCSGAAKGVHVMIRFIVKLLLCALVLLPLPAFATSGADTGPDNRLLRMGVRAHGGFTRLSMAFERDIAPVLHQLSGNRVRLVFSNTVGGRWKKLRSYRDAHVEGVVVAPRGNDLMVTVTIKGDPRGVRVSTSPGAGVVSLDVGASLAPRRSPPLAQGREGIKVGVEQLITTFDPPFKSEIPFTPTDRRVLEAMVPPAEAALIMDGEAALYEGNGSEAAEIFAGIGTNSPGRPLALYRLGEANYLLQKYGDALRFFREAERQWPVFLTRSPSTAFCYADSVARSGDLAGGRRLLGSLIAGLADKKYAPALLVRMADILARQGKDQEALAIYRNVADNFTGSKGSWQARMKLADRRLLALEPAAYSSLVKDYLEIYERGTDFGLREQGLFKAALLLSLYGDADQAFARVAEYEKKFPRGMYVSIAKGMREELLVPVYRRITRAGDNEALVKLALENRDYLGRVLAEDDFIKNLSAAFADLGRIKEEVGLYANLAIREQNRVYAPELYRRILHDAEQLGDPTLMEKAAGEFVERFPAHPWVQRFREELAAVEYNRGDFQRVVGRLSGMLASGTRPEYAESLYYLGKSLDASGNRRDAERAMLLFLAELRRREMSSPLAADASYVAATARLSRGDRKGAKEILRAAGEASPEERDPFLYKLGEIARSEGRYEEAAHYLRTVVKEGKDPDWRDMASRLLADMELTGMVRKSK | failed
12 | HPNVTFIIGENGTGKSTLLEGIAIALGFNAEGGTKNFRFSTNDSHSSLHEYLRISKSFNTPSDGFFLRAESFYNVASYIDEIDADLEARGNPVIDSYGGISLHEQSHGESFFSLFMNRFSGQGLYILDEPEAALSPMRQLSMLIRMHELAEQGSQFVIATHSPILMAYPESTIYSLTQEG | failed
13 | MEFAPRSVVIEEFIDTLEPMMEAYGLDQVGIFEEHGEGNRYYVGYTINKDDEMITIHMPFVKNERGELALEKQEWTVRKDGREKKGFHSLQEAMEEVIHS | not failed
14 | MYTNRWEGLDEFVAVAECGQFTAAALRLGVSSSHVSRQIVRLEERLQTRLLYRSTRKVALTEAGQTFLHHCQRLQDGREEALRAVGDLASEPKGLLRMTCAVAYGERFITPLVTRFMELYPQLRVDIELSNDTLDLVHEGMDLAIRLGRLQDSRMVATRLAPRQMYLCASPSYLERYGRPHSLSELSRHNCLIGGSDTWQLQQNGREFSQRVQGNWRCNSGQAVLDAALQGVGLCQLPDYYVQKHLKEGALVSLLEAHQPPNTAVWALYPQQRHLSPKVRKLVDYLKEGLAMQDEYRQ | failed
15 | MSLASYFIGVDVGTGSARAGVFDLQGRMVGQASREITMFKPKADFVEQSSENIWQAVCNAVRDAVNQADINPIQVKGLGFDATCSLVVLDKEGNPLTVSPSGRNEQNVIVWMDHRAITQAERINATKHPVLEFVGGVISPEMQTPKLLWLKQHMPNTWSNVGHLFDLPDFLTWRATKDETRSLCSTVCKWTYLGHEDRWDPSYFKLVGLADLLDNNAAKIGATVKPMGAPLGHGLSQRAASEMGLIPGTAVSVSIIDAHAGTIGILGASGVTGENANFDRRIALIGGTSTAHMAMSRSAHFISGIWGPYYSAILPEYWLNEGGQSATGALIDHIIQSHPCYPALLEQAKNKGETIYEALNYILRQMAGEPENIAFLTNDIHMLPYFHGNRSPRANPNLTGIITGLKLSTTPEDMALRYLATIQALALGTRHIIETMNQNGYNIDTMMASGGGTKNPIFVQEHANATGCAMLLPEESEAMLLGSAMMGTVAAGVFESLPEAMAAMSRIGKTVTPQTNKIKAYYDRKYRVFHQMYHDHMRYQALMQEGEGHHHHHH | not failed
